# Experimental data reported in the nanobody polyreactivity screen of Harvey et al. (2022).
# Test: yeast display, Sf9 membrane polyspecificity reagent, FACS + sequencing; frameworks hold sequencing errors
# How it was run: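 A synthetic nanobody library was expressed on Saccharomyces cerevisiae BJ5465 by galactose induction for 36–48 hours. The library was stained for 1 hour at 4 °C with 10% biotinylated, detergent-solubilized Sf9 membrane reagent and enriched with streptavidin microbeads before FACS. Low and high (top ~1%) gates were set on anti-HA fluorescence for expression and streptavidin fluorescence for reagent binding, and each polyreactivity label reflects the gate of origin.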
row,Sequence,polyreactivity (PSR sort gate)
1,QVQLVESGGGLVQAGGSLRLSCAASGSIFYRYAMAWYRQAPGKERELVAAISSTGSPYYADSVKGRFTISRDNAKNTVYLQRNSLKPEDTAVYYCAARQGYRSYRRYDDWGQGTQVTVSS,high polyreactivity
2,QVQLVESGGGLVQAGGSLRLSCAASGSIFYRYAMGWNRPAPGKERELVAAISRSGGTTYYADSVKGRFTISRDNAKNTVYLQMYCLKPEDTAVYYCAALVFHAYSTDPYFYWGQGTQVTVSS,high polyreactivity
3,QVQLVESGGGLVQAGGSLRLSCAASGSIFYRYAMGWYRPAPGKERELVAAISSTGSTYYADSVKGRFTISRDNAKNTVYLQMNSLKPEDTAVYYCAARQGFRSYRRYDYWGQGTQVTVSS,high polyreactivity
4,QVQLVESGGGLVQAGGSLRLSCAASGSIFYRYAMGWYRQAPGKERELVASISSGVSTNYADSVKGRFTISRDNAKNTVYLQMNSLKPEDTAVYYCAAYYRGWSSSYWYPAYNYWGQGTQVTVSS,low polyreactivity
5,QVQLVESGGGLVQAGGSLRLSCAASGSIFYRYAMGWYRQAPGKERELVATITRRGGTTYYADSVKGRFTISRDNAKNTVYLKMNSLKPEDTAVYYCARPYLRASYGAIDYDYWGQGTQVTVSS,high polyreactivity
6,QVQLVESGGGLVQAGGSLRLSCAASGSIFYRYAMGWYRQAPGKERELVAVISTGGSTYYADSVKGRFTISRDNAKNTVYLQMNSLKPEDTAVYYCNVLYYSRYAPYGRYGYWGQGTQVTVSS,high polyreactivity
7,QVQLVESGGGLVQAGGSLRLSCAASGSIFYRYAMGWYSQAPGKERELVAAINNGGGRTYADSVKGRCTISRDNAKNTVYLQMNSLKPEDTAVYYCAARYYRDYRWYTYAYDYWGQGTQVNVSS,high polyreactivity
8,QVQLVESGGGLVQAGGSLRLSCAASGSIFYSNAMGWYRQAPGKEREFVAAISAGGGSTYYADSVKGRFTISRDNAKNPVYLQMNSLKPEDTAVYYCAAQQYKIIYPYDYWGQGTQVTVSS,low polyreactivity
9,QVQLVESGGGLVQAGGSLRLSCAASGSIFYSNAMGWYRQAPGKERELVAAISWSGGSTYYADSVKGRFTISRDYAKNTVYLQMNSLKPEDTAVYYCAASYDIYYYDAASLDDYDYWGQGTQVTVSS,low polyreactivity
10,QVQLVESGGGLVQAGGSLRLSCAASGSIFYSNAMGWYRQAPGKERELVAAITSGGRTYYADSVKGRFTISRDNAKNTVYLQMNSLKPEDTAVFYCAARYYLGSWSDYYYWGQGTQVTVSS,high polyreactivity
11,QVQLVESGGGLVQAGGSLRLSCAASGSIFYSNAMGWYRQAPGKERELVAAITSSGGITRYADSVKGRFTISRDNAKNTVYLQMNSLKPEDTAVYYCAKDIRVYASDYWGQGTQVTVSS,low polyreactivity
12,QVQLVESGGGLVQAGGSLRLSCAASGSIFYSNAMGWYRQAPGKERELVAAITWRGGSTYYADSVKGRFTISRDNAKYTVYLQLNSLKPEDTAVYYCNADGSARTPYYYRWYRYGYWGQGTQVTVSS,high polyreactivity
13,QVQLVESGGGLVQAGGSLRLSCAASGSIFYSNFMGWYRQAPGKERELVARITDAGSTNYADSVKGRFTISRDNAKNSVYLQMNSLKPEDTAVYYCNARLVIYTYDYWGQGTQVTVSS,low polyreactivity
14,QVQLVESGGGLVQAGGSLRLSCAASGSIFYSYAMGWYRQAPGKERELVAAINWSGGSTYYADSVKGRFTISRDNAKNTVYLQMKSLKPEDTAVYYCAADYGWGPIYDYWGQGTQVTVSS,low polyreactivity
15,QVQLVESGGGLVQAGGSLRLSCAASGSIFYSYAMGWYRQAPGKERELVAAISFSGGSTYYADSVKGRFTISRDNAKNTVYLHMNSLKPEDPAVYYCNTLSADTFDYWGQGTQVTVSS,low polyreactivity
16,QVQLVESGGGLVQAGGSLRLSCAASGSIFYSYAMGWYRQAPGKERELVAAISTTGGSTYYADSVKGRFTISRDNAKNTVYLQMNSLKPEDTAVYYCAREQGFRGDWYDYWGQGTQVTVSS,high polyreactivity
17,QVQLVESGGGLVQAGGSLRLSCAASGSIFYSYAMGWYRQAPGKERELVAAITSRTGNTYYADSVKGRFTISRDNAKNTVYLQMNSLKPEDTAVYYCAAKLVNALLHYRIWNHNNYWGQGTQVSVSS,low polyreactivity
18,QVQLVESGGGLVQAGGSLRLSCAASGSIFYSYAMGWYRQAPGKERELVARITKRGGRTYYADSVKGRFTISRDNAKNTVYLQMNSLKPEDTAVYYCAATTGHRTYRYYYWGQGTQVTVSS,high polyreactivity
19,QVQLVESGGGLVQAGGSLRLSCAASGSIFYSYAMGWYRQAPGKERELVASINWSGASTYYADSVKGRFTISRDYAKNTVYLQMNSLKPEDTAVYYCAADWWGYDGRYDYWGQGTQVTVSS,high polyreactivity
20,QVQLVESGGGLVQAGGSLRLSCAASGSIFYSYAMGWYRQAPGKERELVAVITRGGSTNYADSVKGRFTISRDNAKNTVYLQLNSLKPEDTAVYYCNKDRYGKVFRYPPYYRSSPYDYWGQGTQVTVSS,high polyreactivity
21,QVQLVESGGGLVQAGGSLRLSCAASGSIFYSYVMGWYRQAPGKERELVAAISRNGQSTYYADSVKGRFTISRDNAKNTVYLQMNSLKPEDTAVYYCAARSRDKYDYWGQGTQVTVSS,high polyreactivity
22,QVQLVESGGGLVQAGGSLRLSCAASGSIFYTNAMGWYRQATGKERELVAVITASGGSTYYADSVKGRFTISRDNAKNTVYLQMNSLKPEDTAVYYCAADPVFNYDYWGQGTQVTVSS,low polyreactivity

row,Sequence,polyreactivity (PSR sort gate)
1,QVQLVESGGGLVQAGGSLRLSCAASGSIFYTYAMGWYRPAPGKEREFVAAITSSGGSTYYADSVKGRFTISRDNAKNTVYLQMNSLKPEDTAVYYCAARTPHYGKCYDIFDYWGQGTQVTVSS,low polyreactivity
2,QVQLVESGGGLVQAGGSLRLSCAASGSIFYTYAMGWYRQAPGKERELVAAISGTGTSTYYADSVKGRFTISRDHAKNTVYLQMNSLKPEDTAVYFCATHGGAAWGRYYWYYGYWGQGTQVTVSS,low polyreactivity
3,QVQLVESGGGLVQAGGSLRLSCAASGSIFYTYAMGWYRQAPGKERELVAAITYSGGSTYYADSVKGRFTISRDNAKNTVYLQMNSLKPEDTAVYYCAAYVIPGLGAEYGYWGQGTQVTVSS,low polyreactivity
4,QVQLVESGGGLVQAGGSLRLSCAASGSIFYTYVMGWYRQAPGKVREFVAAISKSGGSTYYADSVKGRFTISRDNAKNPVYLQMNSLIPEVTAVYYCAAYPIVSIQRRARGNSWGQGTQVTVSS,high polyreactivity
5,QVQLVESGGGLVQAGGSLRLSCAASGSIFYTYVMGWYRQAPRKERELVAAITRAGNTYYADSVKGRFTISRDNAKKTVYLQMNILKPEDTAVYYCAAGRYKPFTYHFDYWGQGTQVTVSS,high polyreactivity
6,QVQLVESGGGLVQAGGSLRLSCAASGSIFYVKTMGWSRQAPGKEREFLAAINYSGDSTYADSVKGRFTISRDNAKNTVYLQMIRLKPEDTAVYYCNAVPVRYLRGRNGHDYWGQGTQVTVSS,high polyreactivity
7,QVQLVESGGGLVQAGGSLRLSCAASGSIFYVYAMGGYRQAPGKERELVAAITSGSSTNYADSVKGRFTISRDNAKNTVYLQMNSLKPEDTAVYYCAASFRDDFPQRLDYWGQGTQVTVSS,low polyreactivity
8,QVQLVESGGGLVQAGGSLRLSCAASGSIFYVYAMGWYRQAPGKERELVAAISRGGGSTSYADSVKGRFTISRDNAKNTVYLQMNSLKPEDTAVYYCNAYTYYHANHEQGFGYWGQGTQVTVSS,low polyreactivity
9,QVQLVESGGGLVQAGGSLRLSCAASGSIFYVYAMGWYRQAPGKERELVATIDWSGGSTYYADSVKGRFTISRDNAKNTVYLQMNSLKPEDTAVYYCAAPTEQDPFAPVAFYRYDYWGQGTQVTLSS,low polyreactivity
10,QVQLVESGGGLVQAGGSLRLSCAASGSIFYVYAMGWYRQAPGKEREMVAAINTSGGSTFYADSVKGRFTISRDNAKNTVYLQMNSLKPEETAVYYCAAERYRYRSTDTMVYWGQGTQVTVSS,low polyreactivity
11,QVQLVESGGGLVQAGGSLRLSCAASGSIFYVYAMGWYRQAPGNERELVAAINTSGGSTFYADSVKGRFTISRDNAKNTVYLQINSLKPEDTAVYYCAAERYRYRSTDTMGYWGQGTQVTVSS,low polyreactivity
12,QVQLVESGGGLVQAGGSLRLSCAASGSIFYWYAMGWYRQAPGKERELVAAIDISDDTYYADSVKGRFTISRDNAKNTVYLQMNSLKPEDTAFYYCAARNTRWFYEYDWGQGTQVTVSS,high polyreactivity
13,QVQLVESGGGLVQAGGSLRLSCAASGSIFYWYVMVWYRQAPGKERELVATISDSTNYADSVKGRFTISRDNAKNTVYLQMNSLKPEDTAVYYCNARVRGLGKYESWGQGTQVTVSS,low polyreactivity
14,QVQLVESGGGLVQAGGSLRLSCAASGSIFYYAMGWYRQAPGKERELVAAITWRGGRTYYADSVKGRFTISRDNAKNTVYLQMNSLKPEDTAVYDFNAVAPGKYNLWGQGTQVTVSS,high polyreactivity
15,QVQLVESGGGLVQAGGSLRLSCAASGSIFYYGMGWYRQAPGKERELVAAITRGGSTYYADSVKGRFTISRDNAKNTVYLQMNSLKPEDTAVYYCATGPLVYYSARYSSYVYPYDYWGQGTQVTVSS,low polyreactivity
16,QVQLVESGGGLVQAGGSLRLSCAASGSIFYYNAMGLYIQAPGKERELVAAITSSGGSTYYADSVKGRFTISRDNAKNTVYLQMNSLNPEDTAVYYCNNDTLVYGYVQDSEYWGQGTQVTVSS,low polyreactivity
17,QVQLVESGGGLVQAGGSLRLSCAASGSIFYYNAMGWYRQAPGKERELVAAITSGDSTNYADSVKGRFTISRDNAKNPVYLQMNSLKPEDTAVYYCAADYLAALTYYRTYDYWGQGTQVTVSS,low polyreactivity
18,QVQLVESGGGLVQAGGSLRLSCAASGSIFYYNAMGWYRQAPGKESELVAASSRRVGNTYYADSVKGRFTISRDNAKNTVYLQMNSLKPEDTAVYYCNTDRSSRPSYDYWGQGTQVTVSS,high polyreactivity
19,QVQLVESGGGLVQAGGSLRLSCAASGSIFYYNTMGWYRQAPGKERELVAGISWGGGRTYYADSVKGRFTISRDNAKNTVYLQMNSLKPEDTAVYYCNARHRRLPSNGGYDYWGQGTQVTVSS,high polyreactivity
20,QVQLVESGGGLVQAGGSLRLSCAASGSIFYYYAMGWYRPAPGKEWELVAAISSTVSTNYADSVKGRFTISRDNAKNTVYLQMNSLKPEDTAVYYCAAAQRVNHVWYDYWGQGTQVTVSS,low polyreactivity
21,QVQLVESGGGLVQAGGSLRLSCAASGSIFYYYAMGWYRQAPGKEREFVATIRRSGASTYYADSVKGRFTISRDNAKNTVYLQMNSLKPEDTAVYYCNAASARRPIYEAARWSKYDYWGQGTQVTVSS,low polyreactivity
